± gives the uncertainty stated by the source.

This data set can be described thus: amyloid nucleation score (Sup35N fusion, yeast selection) (log enrichment); library NNK2; higher = more nucleation; inactive = no reads after selection. The method in brief:
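Peptides of 20 random codons, each fused to Sup35N, were expressed in psi-negative yeast. Cells were induced with 100 μM copper sulfate for 24 hours and grown 7 days at 30°C on medium lacking adenine and uracil, and plasmid inserts before and after selection were Illumina-sequenced. Nucleation scores are DiMSum log enrichments of output over input reads, centred on the mode score of non-aggregating sequences, and sequences under 100 input reads were excluded.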
HNSCVSITSKLQCPLRTVSG: the amyloid nucleation score is 0.252 ± 0.65.

In turn, HPGMVVIAE showed an amyloid nucleation score of 3.97 ± 0.075.

With HPHKS, the amyloid nucleation score was -0.325 ± 0.76.

For HQRGMNLISFVWHSENVRIW, the amyloid nucleation score turned out to be 1.07 ± 0.61.

In the case of HQVLYTIAISFTIELAVIIA, the amyloid nucleation score result is “inactive”.

Consider HRLQLPHHRKGKWVLLMWGV, for which the amyloid nucleation score is -0.44 ± 0.41.

The substance HRVAVTKYATRYIPLIMLNW yielded an amyloid nucleation score of -0.354 ± 0.49.

In turn, HRVQSGLCSKNSRE had an amyloid nucleation score of 2.96 ± 0.15.

On to HRVRSDDLVKAWPQWNALGA, for which the amyloid nucleation score is 1.18 ± 0.12.

Regarding HRVYEFIKPLGPGAHTFVFT, the amyloid nucleation score stood at 0.097 ± 1.1.

On to HRYEKSAHTVVWSIMVFS, for which the amyloid nucleation score is 0.033 ± 0.45.

On to HSFIGSRIVSFGFDVRGRWA, for which the amyloid nucleation score amounted to 4.91 ± 0.059.

Take HSVKCDSLGFLPFSTYWLRI: the amyloid nucleation score is -0.047 ± 0.79.

The substance HTKVRGKRLCGDWSVRISCS had an amyloid nucleation score of 0.733 ± 0.29.

As for HTSVFFRKKPGSCISRSLSL, the amyloid nucleation score result is “inactive”.

On to HTYNLSKR, for which the amyloid nucleation score was -1.1 ± 0.62.

HVCCFKSQDRCYWVG displayed an amyloid nucleation score of -0.447 ± 0.63.

For HVDIRLWTFNRSRFIGVFGV, the amyloid nucleation score was 2.75 ± 0.079.

Regarding HVFADERMDVGGSITVTARG, the amyloid nucleation score was 0.164 ± 1.1.

Regarding HVFFHFRDVTSGL, the amyloid nucleation score came to 4.64 ± 0.065.

Substance HVNWVKKSSWLIGT displayed an amyloid nucleation score of 0.62 ± 0.74.

HVTMCKYYFWYMEIVVVKP displayed an amyloid nucleation score of -0.456 ± 0.55.

HVTRVSVLQVLELHSTMTGV had an amyloid nucleation score of 4.09 ± 0.09.

Take HVVLTLGLRISQHRLLRYKK: the amyloid nucleation score was found to be 5.64 ± 0.095.

In turn, HVYIGVNLKRENKTHQTSSV registered an amyloid nucleation score of 4.77 ± 0.064.

Regarding HVYYTVNLVLVNLYPLYFFT, the amyloid nucleation score is 5.855 ± 0.041.

Consider HWDLIGGVL, for which the amyloid nucleation score is -0.176 ± 1.1.

With HWLRSGWELNVRVLGPQATF, the amyloid nucleation score turned out to be 0.982 ± 0.34.

HWRFFCMDHNFILSVKDVVA: the amyloid nucleation score result is “inactive”.

With HWWLIIRDLKASRIDVRQWE, the amyloid nucleation score result is “inactive”.

HYCRHLLVLHSSKYARSHSS yielded an amyloid nucleation score of -0.338 ± 0.37.

HYFEIVA showed an amyloid nucleation score of -0.315 ± 0.45.

Consider HYLAFVCIIFSLLRLITQPM, for which the amyloid nucleation score was found to be 2.53 ± 0.18.

With HYLEGYRFDLEMIVCICQKG, the amyloid nucleation score is 5.369 ± 0.049.

The substance HYPQYCFFARKIFITCGYME came in with an amyloid nucleation score of 5.22 ± 0.061.

As for HYRIWVMHMWDCYWTTNFHG, the amyloid nucleation score is -0.393 ± 0.63.

On to IADQTMISRYSRS, for which the amyloid nucleation score came to 5.89 ± 0.084.

In turn, IAFFGLCMSRVSLGVLEMRL showed an amyloid nucleation score of 2.21 ± 0.18.

IAITDFVLVSVLHSKWCIF came in with an amyloid nucleation score of -0.246 ± 0.5.

Take IAKMSFAINNDIYNCRFIST: the amyloid nucleation score is 2.46 ± 0.11.

On to IAKPSVRHMYSFHVVDKTGH, for which the amyloid nucleation score result is “inactive”.

On to IAPLWPYLNPYRVIFF, for which the amyloid nucleation score result was “inactive”.

With IAVAKYLTLKDVVLNSWNSY, the amyloid nucleation score was determined as 7.624 ± 0.036.

The substance IAVYTYLAGAWKHLETLAFP returned an amyloid nucleation score of 3.8 ± 0.1.

In turn, ICFIVSSFRY registered an amyloid nucleation score of 2.58 ± 0.23.

Substance ICFNDILQFTS had an amyloid nucleation score of -0.498 ± 0.44.

In turn, ICFVFF had an amyloid nucleation score of -0.777 ± 1.

On to ICIFIWIDASRACKPNIQCS, for which the amyloid nucleation score was 5.58 ± 0.062.

ICIFSSCERSMGHRRC: the amyloid nucleation score was 0.141 ± 0.38.

ICILDYND: the amyloid nucleation score was -1.15 ± 0.76.

For the substance ICRLFVR, the amyloid nucleation score is -0.454 ± 0.31.

Substance ICSKRIFFSA had an amyloid nucleation score of -0.772 ± 1.1.

IDERATSEDSSGRKDSVTFL: the amyloid nucleation score was -0.306 ± 0.28.

As for IDKGSKVFTGLGLLFCSKYF, the amyloid nucleation score amounted to 7.2 ± 0.074.

For the substance IDLNLYERFDFQFTVSVPSV, the amyloid nucleation score result is “inactive”.

For IDLWWSATHVTLLLSAPGIY, the amyloid nucleation score is -1.09 ± 0.42.

Regarding IDSADVSIVRCKTQVRRIMR, the amyloid nucleation score was found to be 5.62 ± 0.063.

In turn, IDYVGYMKWMMV gave an amyloid nucleation score of 0.016 ± 0.38.

On to IEGTVRYYPVSNFT, for which the amyloid nucleation score result is “inactive”.

For the substance IEQFTVNLLTRRLKNSMGQN, the amyloid nucleation score was -0.544 ± 0.79.

IEQVRDECHYTDVATLIEMM showed an amyloid nucleation score of 0.675 ± 0.24.

IEVRRKPSLDLKLDGEGIVR: the amyloid nucleation score was found to be 1.37 ± 0.32.

In turn, IFDVNCPS showed an amyloid nucleation score of -0.196 ± 1.1.

Consider IFENI, for which the amyloid nucleation score result was “inactive”.

On to IFGLNHWTVFSSPINLSTSG, for which the amyloid nucleation score entry is “inactive”.

As for IFHHPNHIHVDQFSPLLFYE, the amyloid nucleation score was -0.64 ± 0.79.

IFIPSFWGIFTIPM: the amyloid nucleation score is -1.01 ± 1.

In turn, IFIVYILCFFMREIFAPI registered an amyloid nucleation score of 3.77 ± 0.11.

In turn, IFRLELNTIIPPSQYNASAH came in with an amyloid nucleation score of 4.57 ± 0.1.

As to IFSISLLMAQYIGVWFFRRV, the amyloid nucleation score result was “inactive”.

With IFVCAMV, the amyloid nucleation score worked out at 0.395 ± 0.65.

Turning to IFVGIIKIVCWNNEGVDDLQ, the amyloid nucleation score was determined as 4.61 ± 0.063.

In the case of IFVLNKQNYLRIYNVPPLLI, the amyloid nucleation score was 5.667 ± 0.05.

For the substance IGARFKFNQWTSYYIQRF, the amyloid nucleation score result was “inactive”.

The substance IGDYLRLELVL returned an amyloid nucleation score of 0.187 ± 0.74.

On to IGISLSSRPCYTFFSRLRWI, for which the amyloid nucleation score was -0.387 ± 0.38.

In turn, IGKSCRLRA had an amyloid nucleation score of 0.609 ± 0.46.

With IGLKYSLWVVGFEVRLRCAD, the amyloid nucleation score stood at 3.86 ± 0.07.

In turn, IGSVGTPWE came in with an amyloid nucleation score of -0.042 ± 0.45.

The substance IGVSNLLCMFTLDPKGIQDG registered an amyloid nucleation score of 8.488 ± 0.056.

In turn, IGVYSVWNFMMVRSADARFN registered an amyloid nucleation score of 3.4 ± 0.16.

Take IHMWYSDG: the amyloid nucleation score was -1.25 ± 0.75.

Regarding IHRGWSWMQSRILDVGSR, the amyloid nucleation score amounted to 0.162 ± 0.54.

The substance IHSNEDFVRSESGVLDAYSV gave an amyloid nucleation score of -0.627 ± 0.42.

As for IHVPIQ, the amyloid nucleation score was -0.046 ± 0.54.

IHWGLIIGSCRF returned an amyloid nucleation score of 1.56 ± 0.27.

IIDYFSN came in with an amyloid nucleation score of -0.953 ± 1.1.

In turn, IIFDNFLEMVAILWLLVCCY had an amyloid nucleation score of -1.66 ± 0.76.

IIIGFWVCWNSIASWSIVGR showed an amyloid nucleation score of -1.78 ± 1.1.

As for IIINFRVAINDWGFLSVSID, the amyloid nucleation score was 5.515 ± 0.027.

The substance IIPQNSQDQNRDISVKAFSV gave an amyloid nucleation score of -0.937 ± 0.61.

As to IISPVGVRMAYL, the amyloid nucleation score is 0.176 ± 0.37.

As to IISTIT, the amyloid nucleation score worked out at 1.49 ± 0.14.

Take IITYVLLFNKFNTGVCE: the amyloid nucleation score came out at 7.393 ± 0.049.

The substance IIVNMKLVDTS had an amyloid nucleation score of 0.138 ± 1.1.

As for IIYNKSW, the amyloid nucleation score came to 2.77 ± 0.094.

IKCLYV came in with an amyloid nucleation score of -0.127 ± 1.

With IKCWAPLNCSGGLVGHDQAV, the amyloid nucleation score was -0.562 ± 0.44.

Regarding IKMRNPSSRSSASGQQRGHV, the amyloid nucleation score came out at 0.167 ± 0.26.

For the substance IKQSYTYNPK, the amyloid nucleation score was 1.87 ± 0.12.

As for ILALNWLFSICST, the amyloid nucleation score is 6.903 ± 0.035.

The substance ILANFFCGDRNCL gave an amyloid nucleation score of 7.128 ± 0.036.

Consider ILAVKHFRFMVGSKISGGSG, for which the amyloid nucleation score was determined as 2.15 ± 0.094.

As to ILDCLSYQLDDVVSAI, the amyloid nucleation score was determined as 3.21 ± 0.046.

ILGDRSRSS came in with an amyloid nucleation score of 0.388 ± 0.62.

Turning to ILIRLLGSRKQSWNYEIKVL, the amyloid nucleation score is -0.645 ± 0.37.

Regarding ILIRLLTKVLTMLNDMH, the amyloid nucleation score came to 0.136 ± 0.65.

Consider ILISRIFIFDNYMIYLCCCG, for which the amyloid nucleation score is -0.762 ± 0.79.

As for ILISVRNYIKSEKSRNSYHK, the amyloid nucleation score is 7.673 ± 0.03.

The substance ILLPSFRPLRQAAAG gave an amyloid nucleation score of -0.311 ± 0.79.

As for ILQVPRTFFIRSHRSSVHL, the amyloid nucleation score entry is “inactive”.

In turn, ILRCLNLYMRSIMRVELSIQ returned an amyloid nucleation score of 0.461 ± 0.8.

With ILSAFV, the amyloid nucleation score was -0.16 ± 0.36.

As to ILSNELFYLLYEW, the amyloid nucleation score stood at 8.798 ± 0.079.

In turn, ILVEGET gave an amyloid nucleation score of -0.263 ± 0.33.

ILVNLVVVIKSSYRLSKCRF gave an amyloid nucleation score of -0.67 ± 1.1.

As to ILWWFRVTAHAWEDETGWMW, the amyloid nucleation score turned out to be 0.098 ± 0.23.

With ILYGCLLPCLHLRGHPLVLK, the amyloid nucleation score was determined as 0.42 ± 0.33.

For IMCLKFLNPTHFGCVGVCML, the amyloid nucleation score was -1.22 ± 0.41.

Consider IMHCVHKSRILSSVTKIKEP, for which the amyloid nucleation score result was “inactive”.

In turn, IMIILLVSVTKSNFTPQSMC gave an amyloid nucleation score of 2.26 ± 0.23.

Turning to IMNMCISDKFSIVVSSYVRY, the amyloid nucleation score came out at 0.958 ± 0.36.

For IMNSQVVGSFHA, the amyloid nucleation score was -0.357 ± 0.37.

In the case of IMYWRGFWLFASLFTILWWF, the amyloid nucleation score result was “inactive”.

Substance INFYIDIWISIRREGFAFRP displayed an amyloid nucleation score of 1.97 ± 0.25.

INHDFQTHVL displayed an amyloid nucleation score of 0.154 ± 0.65.

On to INLRMCGFYTSFDLNWRRKW, for which the amyloid nucleation score amounted to 4.981 ± 0.049.

In the case of INNLRSCLSMY, the amyloid nucleation score was determined as 0.562 ± 0.57.

INWCYAPRLYFNHRWWDYCG came in with an amyloid nucleation score of 6.586 ± 0.054.

IPFASLNEFTSATY yielded an amyloid nucleation score of 3.07 ± 0.1.

Turning to IPFRFDMSRSFISSTFTVRI, the amyloid nucleation score was -0.533 ± 0.63.

Substance IPLRHVLLVMQCRPAL yielded an amyloid nucleation score of 0.915 ± 0.23.

IPNVPCIRGVSYSDFFTSSY registered an amyloid nucleation score of -0.044 ± 0.61.

As for IPWNQRRKW, the amyloid nucleation score was found to be 0.671 ± 0.16.

In turn, IPWVNRTPCSTCGGFRFTDP yielded an amyloid nucleation score of 3.53 ± 0.08.

Regarding IPYLDYMTMH, the amyloid nucleation score stood at 0.082 ± 0.22.

Consider IQPPQFFAFI, for which the amyloid nucleation score entry was “inactive”.

The substance IQVASRRIIM registered an amyloid nucleation score of 0.063 ± 0.21.

Substance IQWYNLYTENRMISKLRGSW gave an amyloid nucleation score of -0.547 ± 1.1.

Consider IREGMWCSRGMHHTRLRDFS, for which the amyloid nucleation score was 0.671 ± 0.64.

The record behind these values is the supplement of paper PMC12042874.
